Laboratory results reported in article PMC12400406 (Organic Letters, 2025).

Tests used:
CmnA-A2-CmnN = target: T1, CmnA-A2-CmnN (Saccharothrix mutabilis, UniProt A6YEH2); experiment: enzyme activity assay (amino acid activation); format: biochemical
T1 construct: second adenylation domain of CmnA, with MbtH-like protein CmnN, recombinant; with MbtH-like protein CmnN
T1 sequence (A6YEH2 1420-1895 limits assumed): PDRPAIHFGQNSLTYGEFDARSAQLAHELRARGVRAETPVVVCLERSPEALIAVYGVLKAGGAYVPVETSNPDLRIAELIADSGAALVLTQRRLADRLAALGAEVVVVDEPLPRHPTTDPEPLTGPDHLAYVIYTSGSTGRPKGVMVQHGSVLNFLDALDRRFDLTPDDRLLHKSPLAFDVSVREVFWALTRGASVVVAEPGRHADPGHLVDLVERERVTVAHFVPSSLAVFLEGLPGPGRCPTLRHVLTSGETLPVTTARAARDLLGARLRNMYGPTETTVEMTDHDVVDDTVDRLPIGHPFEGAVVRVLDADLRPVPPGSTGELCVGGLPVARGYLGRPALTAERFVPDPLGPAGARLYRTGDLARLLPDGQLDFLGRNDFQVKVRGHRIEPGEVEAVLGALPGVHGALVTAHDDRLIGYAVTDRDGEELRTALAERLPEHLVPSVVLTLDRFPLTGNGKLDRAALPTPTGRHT
T1 sequence (A6YEI5 1-62 partner): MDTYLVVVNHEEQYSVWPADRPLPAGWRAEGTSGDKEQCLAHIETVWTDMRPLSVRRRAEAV

CmnA-A1–CmnN = target: T2, CmnA-A1–CmnN (Saccharothrix mutabilis, UniProt A6YEH2); experiment: in vitro loading onto CmnI-T, intact protein Q-TOF MS; adenylation activity assay; format: biochemical; details: ATP, Mg2+; holo-CmnI-T as acceptor
T2 construct: first adenylation domain (module 1) of CmnA, co-expressed with MbtH-like protein CmnN in E. coli; with MbtH-like protein CmnN
T2 sequence (A6YEH2 450-890 limits assumed): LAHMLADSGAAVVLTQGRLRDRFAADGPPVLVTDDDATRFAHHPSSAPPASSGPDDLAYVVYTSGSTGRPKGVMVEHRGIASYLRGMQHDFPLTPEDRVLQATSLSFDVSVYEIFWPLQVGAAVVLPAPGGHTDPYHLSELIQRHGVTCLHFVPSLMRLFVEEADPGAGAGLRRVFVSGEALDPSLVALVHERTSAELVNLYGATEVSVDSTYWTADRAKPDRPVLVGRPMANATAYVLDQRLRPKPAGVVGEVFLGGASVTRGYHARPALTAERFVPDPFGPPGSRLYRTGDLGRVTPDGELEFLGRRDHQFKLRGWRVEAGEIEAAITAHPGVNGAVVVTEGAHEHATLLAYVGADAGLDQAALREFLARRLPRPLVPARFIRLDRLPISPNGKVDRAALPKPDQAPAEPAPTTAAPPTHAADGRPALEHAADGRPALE
T2 sequence (A6YEI5 1-62 partner): T1 sequence (A6YEI5 1-62 partner)

CmnA-A2-CmnN complex = CmnA-A2-CmnN complex (Saccharothrix mutabilis subsp. capreolus, UniProt A6YEI5 1-62, The printed limits Leu1832-Gly1896 give only 65 residues, which does not fit the stated 55.5 kDa. They are read as a digit transposition of Leu1382-Gly1896 (515 residues). An added initiator Met is le); experiment: BLI; biolayer interferometry; which partner was immobilised and the conditions are in the Supporting Information (not shown); details: both partners purified
CmnA-A1–CmnN complex = CmnA-A1–CmnN complex (Saccharothrix mutabilis subsp. capreolus, UniProt A6YEI5 1-62, An added initiator Met precedes His364 and is left out. The His-tag on CmnN is thrombin-cleaved. A6YEI5 is taken as CmnN because it is MbtH-like.); experiment: as above; details: both partners purified

With C[C@H](N)C(=O)O [L-Ala] the “enzyme activity assay (amino acid activation)” value (CmnA-A2-CmnN) was “CmnA-A2 is capable of activating both L-Ser and L-Ala”.

For NC[C@H](N)C(=O)O [L-Dap], the “in vitro loading onto CmnI-T, intact protein Q-TOF MS; adenylation activity assa” value (CmnA-A1–CmnN) was “CmnA-A1 specifically recognizes and activates the nonproteinogenic amino acid L-Dap”.

N[C@@H](CO)C(=O)O [L-Ser] was tested, and the “enzyme activity assay (amino acid activation)” value (CmnA-A2-CmnN) was “CmnA-A2 is capable of activating both L-Ser and L-Ala”.

B1: CmnI (enzyme, Saccharothrix mutabilis subsp. capreolus, UniProt A6YEI0 1-548, looked up)
chain: MTTETPATTGAPATTGAPAPPGRAEIVAAVLPVFAEVLDAPDLTPDSDFFVHGGNSLLAIRVAGRVGRRLGRQVPPAGVLKHPTPDLLAAHLEEEFRGGGAPPIPAPRAGAEADRRPSTAQERVWLLHQLDPDRLDHLVTVALDVAGTVDPAAFTAAWTAVVRRHEALRSRFVKADDDRVAVVVDAEAAPEISVLDLARFPAPVRDRLAEERVRLLRTTPIRLDTGPLARFALLRLADRRYRIELAVHHIVCDGWSLDTLLADFLDAYGRALAGRSPALPPPAVGFADYVAWERDVESSRWPDMAVRLARRFADRPADLPLPVDPVDVPAHEDGDDVTVHAPPGLAAAVERARTSFGHTALTFHLTALGVLLARITGVDDLVVAVPVAGRAQTEHEDLVGLFVNTALARVRLGGTSDVRVLLERNRDEVDELVDCQTFPFDRLVDLLGARRAGTRVPLARVSLAVQNFDDPGTPAPELGFTWQFRDPPERQSKFDLAFTVSDTDGLRLTVTYRPSLFRRATVAAWAGQYLVALEHVVRGVADPEGSAR
notes: CmnI, A domain-less NRPS module 3 (T-C didomain) of capreomycin biosynthesis, Saccharothrix mutabilis subsp. capreolus; calculated molecular weight of the apo-form construct 61 484.72 Da; also called A domain-less NRPS module CmnI; source: purified
B1 showed a Kd (CmnA-A2-CmnN complex) of 4.93 µM, a koff (CmnA-A2-CmnN complex) of 0.000728 s⁻¹ and a kon (CmnA-A2-CmnN complex) of 148 M⁻¹ s⁻¹. The Kd (CmnA-A1–CmnN complex) was 1850 nM, the koff (CmnA-A1–CmnN complex) was 0.000477 s⁻¹ and the kon (CmnA-A1–CmnN complex) was 258 M⁻¹ s⁻¹.
